# Results published in patent US20230348605A1 (published 2023).
# Columns and labels:
# [1] = molecular target: T1, FN-EIIIB in human patient tissue (PDAC stroma; metastases on a tissue array) (human, UniProt P02751 32-2477); assay: immunohistochemistry on a multi-organ metastatic tissue array
# T1 construct: Endogenous protein in tissue sections; also called EIIIB expressed in human PDAC stroma; stromal FN-EIIIB
# From the text: To investigate the expression of EIIIB in metastasis samples from multiple patients, we stained a multi-organ tissue array of samples from various metastatic sites derived from 104 patients with NJB2-biotin. […] In parallel, similar results were obtained with a monoclonal anti-EIIIB antibody (AM3, data not shown). These metastases to multiple organs (21 distinct sites) were derived from 17 different primary sites, including rectum, pancreas, lung, ovary, stomach and thyroid among others (Table 4). Among the EIIIB-positive biopsies, ~32% were metastases to the lymph nodes at the metastatic sites (Table 4). This wide expression of EIIIB at metastatic sites in multiple organs and derived from multiple types of primary tumors further broadens the potential applications of NJB2-based imaging and therapeutic applications.
# [2] = molecular target: T2, EIIIB domain of fibronectin; assay: BLI
# T2 construct: domain: EIIIB domain; also called recombinantly expressed EIIIB domain of FN
# [3] = molecular target: T3, fibronectin (FN) containing the EIIIB domain, in the ECM of aortic endothelial cells from control/wild type … (mouse, UniProt P11276 33-2477); assay: biotinylated NJB2 detected with streptavidin-Alexa488 on endothelial cells and their ECM
# T3 construct: whole, on cells; Protein stood in the cell-derived extracellular matrix, not on the cell membrane; also called EIIIB domain of FN
# From the text: The NJB2 was site-specifically labelled with biotin via sortagging and detected with streptavidin-Alexa488. […] The αEIIIB control was cells stained with mouse monoclonal IgG specific to an epitope in the EIIIB domain of FN. The negative control, C, was unstained cells.
# T3 sequence (P11276 33-2477): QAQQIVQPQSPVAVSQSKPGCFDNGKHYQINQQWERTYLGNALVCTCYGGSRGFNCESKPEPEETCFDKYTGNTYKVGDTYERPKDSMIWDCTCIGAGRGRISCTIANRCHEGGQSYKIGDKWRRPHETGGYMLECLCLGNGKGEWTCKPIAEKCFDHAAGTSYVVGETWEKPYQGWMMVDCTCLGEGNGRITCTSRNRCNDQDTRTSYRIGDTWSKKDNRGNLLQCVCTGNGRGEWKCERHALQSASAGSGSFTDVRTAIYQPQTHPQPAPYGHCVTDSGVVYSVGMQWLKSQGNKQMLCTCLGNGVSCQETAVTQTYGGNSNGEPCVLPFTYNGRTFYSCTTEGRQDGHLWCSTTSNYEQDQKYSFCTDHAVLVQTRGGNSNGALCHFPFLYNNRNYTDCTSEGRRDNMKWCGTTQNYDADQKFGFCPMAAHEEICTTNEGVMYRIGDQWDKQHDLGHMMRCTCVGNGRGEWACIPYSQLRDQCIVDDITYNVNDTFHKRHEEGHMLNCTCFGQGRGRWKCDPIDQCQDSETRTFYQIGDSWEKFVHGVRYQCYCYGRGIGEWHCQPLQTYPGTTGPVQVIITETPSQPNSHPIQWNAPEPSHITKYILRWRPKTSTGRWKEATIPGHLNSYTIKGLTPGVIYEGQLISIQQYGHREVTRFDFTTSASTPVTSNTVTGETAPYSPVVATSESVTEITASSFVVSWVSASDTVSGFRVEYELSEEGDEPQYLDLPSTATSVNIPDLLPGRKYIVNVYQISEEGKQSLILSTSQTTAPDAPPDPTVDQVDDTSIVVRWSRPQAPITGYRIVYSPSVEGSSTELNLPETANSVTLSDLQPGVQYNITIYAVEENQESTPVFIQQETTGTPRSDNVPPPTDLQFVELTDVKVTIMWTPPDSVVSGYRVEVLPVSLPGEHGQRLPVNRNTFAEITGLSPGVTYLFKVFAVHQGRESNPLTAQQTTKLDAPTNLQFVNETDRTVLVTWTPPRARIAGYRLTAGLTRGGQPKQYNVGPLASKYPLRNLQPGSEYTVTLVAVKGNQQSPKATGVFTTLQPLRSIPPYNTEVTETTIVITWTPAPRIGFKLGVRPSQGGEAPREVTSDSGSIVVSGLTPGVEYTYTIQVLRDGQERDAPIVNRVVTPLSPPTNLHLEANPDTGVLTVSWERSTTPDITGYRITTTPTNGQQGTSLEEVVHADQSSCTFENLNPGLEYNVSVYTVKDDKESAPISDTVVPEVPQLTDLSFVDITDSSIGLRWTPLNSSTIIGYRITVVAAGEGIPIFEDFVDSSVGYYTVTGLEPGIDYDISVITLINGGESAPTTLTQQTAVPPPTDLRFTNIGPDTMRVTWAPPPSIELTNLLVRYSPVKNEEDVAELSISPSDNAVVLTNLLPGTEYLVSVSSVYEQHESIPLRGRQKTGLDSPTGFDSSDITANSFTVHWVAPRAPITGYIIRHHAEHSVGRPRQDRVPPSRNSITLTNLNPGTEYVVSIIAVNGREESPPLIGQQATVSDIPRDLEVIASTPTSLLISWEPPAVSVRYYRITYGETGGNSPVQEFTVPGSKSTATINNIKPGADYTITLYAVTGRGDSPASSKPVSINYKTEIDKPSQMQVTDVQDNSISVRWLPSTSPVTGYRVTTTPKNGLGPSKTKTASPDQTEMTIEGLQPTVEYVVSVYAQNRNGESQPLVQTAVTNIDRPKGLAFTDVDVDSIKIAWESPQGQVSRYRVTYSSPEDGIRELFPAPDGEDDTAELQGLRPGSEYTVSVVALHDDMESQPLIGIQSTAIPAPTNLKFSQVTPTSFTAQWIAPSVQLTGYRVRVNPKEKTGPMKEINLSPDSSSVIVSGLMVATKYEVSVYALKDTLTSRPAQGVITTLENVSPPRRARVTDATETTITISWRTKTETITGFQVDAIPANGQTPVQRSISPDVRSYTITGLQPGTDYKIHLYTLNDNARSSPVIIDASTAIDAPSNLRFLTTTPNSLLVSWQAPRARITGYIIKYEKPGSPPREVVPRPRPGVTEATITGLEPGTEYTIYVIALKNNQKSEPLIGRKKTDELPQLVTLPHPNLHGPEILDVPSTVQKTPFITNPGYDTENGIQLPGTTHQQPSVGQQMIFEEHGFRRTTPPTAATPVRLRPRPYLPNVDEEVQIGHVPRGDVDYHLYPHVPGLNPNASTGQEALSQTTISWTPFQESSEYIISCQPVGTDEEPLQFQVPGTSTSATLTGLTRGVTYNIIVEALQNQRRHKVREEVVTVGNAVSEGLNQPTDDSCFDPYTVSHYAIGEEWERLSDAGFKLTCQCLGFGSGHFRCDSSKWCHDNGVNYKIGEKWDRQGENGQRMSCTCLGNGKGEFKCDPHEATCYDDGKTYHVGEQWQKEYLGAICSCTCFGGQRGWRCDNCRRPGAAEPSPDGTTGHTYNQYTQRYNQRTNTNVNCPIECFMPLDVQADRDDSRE
# T1 sequence (P02751 32-2477): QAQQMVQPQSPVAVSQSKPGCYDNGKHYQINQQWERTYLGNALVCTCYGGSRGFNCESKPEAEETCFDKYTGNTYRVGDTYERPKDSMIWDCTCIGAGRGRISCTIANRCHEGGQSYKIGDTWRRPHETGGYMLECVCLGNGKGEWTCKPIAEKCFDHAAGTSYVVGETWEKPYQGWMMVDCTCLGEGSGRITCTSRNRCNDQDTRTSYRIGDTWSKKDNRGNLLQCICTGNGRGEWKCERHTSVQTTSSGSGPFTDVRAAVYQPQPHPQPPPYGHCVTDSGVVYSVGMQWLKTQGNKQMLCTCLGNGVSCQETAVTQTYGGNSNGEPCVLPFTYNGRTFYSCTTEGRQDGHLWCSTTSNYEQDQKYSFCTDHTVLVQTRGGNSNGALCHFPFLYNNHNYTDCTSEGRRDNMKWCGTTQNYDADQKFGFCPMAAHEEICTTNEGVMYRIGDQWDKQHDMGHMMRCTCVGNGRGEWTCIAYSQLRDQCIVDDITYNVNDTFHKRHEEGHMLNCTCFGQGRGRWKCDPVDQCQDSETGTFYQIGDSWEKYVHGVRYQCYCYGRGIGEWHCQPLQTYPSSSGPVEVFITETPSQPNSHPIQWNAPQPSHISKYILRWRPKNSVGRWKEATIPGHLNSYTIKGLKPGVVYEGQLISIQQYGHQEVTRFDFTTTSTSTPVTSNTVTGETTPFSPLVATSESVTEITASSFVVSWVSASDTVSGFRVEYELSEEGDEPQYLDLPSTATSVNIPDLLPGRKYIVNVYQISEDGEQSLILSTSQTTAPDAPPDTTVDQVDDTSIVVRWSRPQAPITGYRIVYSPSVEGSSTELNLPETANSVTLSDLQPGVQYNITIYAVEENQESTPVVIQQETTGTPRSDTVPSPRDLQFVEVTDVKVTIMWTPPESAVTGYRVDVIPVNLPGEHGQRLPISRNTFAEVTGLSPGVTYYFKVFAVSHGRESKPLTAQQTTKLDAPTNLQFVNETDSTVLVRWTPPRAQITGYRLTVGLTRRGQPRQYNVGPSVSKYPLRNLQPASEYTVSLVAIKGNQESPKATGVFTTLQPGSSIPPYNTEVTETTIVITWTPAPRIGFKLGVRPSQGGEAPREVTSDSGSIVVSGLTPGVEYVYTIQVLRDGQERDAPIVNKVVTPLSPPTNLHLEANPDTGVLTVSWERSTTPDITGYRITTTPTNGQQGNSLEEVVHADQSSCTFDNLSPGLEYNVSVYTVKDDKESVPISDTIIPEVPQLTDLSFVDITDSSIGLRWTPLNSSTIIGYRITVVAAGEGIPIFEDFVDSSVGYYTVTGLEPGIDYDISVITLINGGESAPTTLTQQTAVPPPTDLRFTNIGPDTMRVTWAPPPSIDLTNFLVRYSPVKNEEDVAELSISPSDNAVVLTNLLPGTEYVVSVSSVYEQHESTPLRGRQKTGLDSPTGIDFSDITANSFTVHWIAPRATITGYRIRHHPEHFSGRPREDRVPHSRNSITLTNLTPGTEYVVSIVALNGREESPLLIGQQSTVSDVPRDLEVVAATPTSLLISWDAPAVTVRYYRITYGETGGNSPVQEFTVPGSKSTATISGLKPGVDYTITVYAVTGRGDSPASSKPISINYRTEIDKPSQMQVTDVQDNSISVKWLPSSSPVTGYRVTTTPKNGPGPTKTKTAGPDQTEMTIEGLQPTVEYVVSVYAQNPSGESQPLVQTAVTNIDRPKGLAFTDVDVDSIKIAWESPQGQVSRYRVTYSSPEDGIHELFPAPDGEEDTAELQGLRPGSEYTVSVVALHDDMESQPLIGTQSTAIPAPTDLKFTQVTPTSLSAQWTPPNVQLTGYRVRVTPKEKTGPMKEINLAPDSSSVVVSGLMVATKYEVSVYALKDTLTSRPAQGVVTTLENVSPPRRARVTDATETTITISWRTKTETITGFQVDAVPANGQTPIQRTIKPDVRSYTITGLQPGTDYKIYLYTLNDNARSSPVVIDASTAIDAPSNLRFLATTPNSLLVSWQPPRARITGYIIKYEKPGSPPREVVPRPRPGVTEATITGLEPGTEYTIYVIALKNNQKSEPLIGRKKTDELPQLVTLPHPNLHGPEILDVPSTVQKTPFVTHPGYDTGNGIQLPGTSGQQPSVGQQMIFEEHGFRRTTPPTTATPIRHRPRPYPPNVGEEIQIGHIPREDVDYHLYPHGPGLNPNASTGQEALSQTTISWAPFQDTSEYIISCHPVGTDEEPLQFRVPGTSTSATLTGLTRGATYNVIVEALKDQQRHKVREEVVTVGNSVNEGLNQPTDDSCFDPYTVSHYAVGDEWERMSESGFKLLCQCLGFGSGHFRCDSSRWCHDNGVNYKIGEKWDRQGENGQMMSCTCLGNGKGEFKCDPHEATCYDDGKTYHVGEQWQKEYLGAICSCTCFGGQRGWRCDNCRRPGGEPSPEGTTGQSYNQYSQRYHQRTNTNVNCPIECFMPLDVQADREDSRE
# T2 sequence (P02751 1271-1359): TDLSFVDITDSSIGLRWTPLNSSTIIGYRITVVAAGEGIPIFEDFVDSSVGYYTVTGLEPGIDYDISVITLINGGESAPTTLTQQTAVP
binder,measurement,setting,value
"NJB2 (VHH, site-specifically labelled via sortagging (LPETG tag) with biotin, Texas Red or 64Cu in the staining and imaging assays, After sortagging the C-terminus differs (label in place of the residues after LPET); also called VHH NJB2; VHH-NJB2) VHH: QVQLVETGGGLVQAGGSLRLSCAASGSTFSHNAGGWYRQAPEKQRELVAGISSDGNINYADSVKDRFTISRDNASNTMYLQMNNLKPEDTAVYVCNIRGSYGNTYYSRWGQGTQVTVSS",binding result,[1],binds
same,Kd,[2],~4 nM
same,binding result,[3],binds
